Measurements taken from patent publication US20260193366A1 (APOGEE THERAPEUTICS, published 2026).

T1: hIL-4Rα on cells (human, UniProt P24394 26-825)
T1 sequence: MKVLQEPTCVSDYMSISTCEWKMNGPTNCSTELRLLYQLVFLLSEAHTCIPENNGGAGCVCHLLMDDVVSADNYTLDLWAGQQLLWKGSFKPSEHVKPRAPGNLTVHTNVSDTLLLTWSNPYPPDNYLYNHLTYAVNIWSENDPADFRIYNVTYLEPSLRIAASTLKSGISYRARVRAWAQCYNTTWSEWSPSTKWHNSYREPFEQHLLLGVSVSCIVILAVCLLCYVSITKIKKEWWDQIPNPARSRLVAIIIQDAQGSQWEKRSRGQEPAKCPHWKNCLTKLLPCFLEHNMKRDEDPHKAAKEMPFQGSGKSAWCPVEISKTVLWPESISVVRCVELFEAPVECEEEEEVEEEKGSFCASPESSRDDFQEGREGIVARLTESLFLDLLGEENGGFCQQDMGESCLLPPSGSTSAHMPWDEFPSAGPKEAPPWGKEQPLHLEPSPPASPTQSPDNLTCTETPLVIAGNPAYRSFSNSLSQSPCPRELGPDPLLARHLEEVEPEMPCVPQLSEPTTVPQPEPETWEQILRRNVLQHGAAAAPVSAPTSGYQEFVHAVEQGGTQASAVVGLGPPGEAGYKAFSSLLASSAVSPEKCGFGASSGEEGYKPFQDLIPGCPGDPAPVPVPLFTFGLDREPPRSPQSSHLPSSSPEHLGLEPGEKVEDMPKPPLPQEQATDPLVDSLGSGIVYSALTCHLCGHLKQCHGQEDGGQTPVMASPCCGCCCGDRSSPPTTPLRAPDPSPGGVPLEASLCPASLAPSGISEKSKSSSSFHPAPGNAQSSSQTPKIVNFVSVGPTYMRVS

T2: cynomolgus monkey IL-4Rα (cynomolgus monkey, UniProt P24394 26-231 (human entry), limits assumed)
T2 construct: also called Cyno IL-4Rα; cyIL-4Rα
T2 chain: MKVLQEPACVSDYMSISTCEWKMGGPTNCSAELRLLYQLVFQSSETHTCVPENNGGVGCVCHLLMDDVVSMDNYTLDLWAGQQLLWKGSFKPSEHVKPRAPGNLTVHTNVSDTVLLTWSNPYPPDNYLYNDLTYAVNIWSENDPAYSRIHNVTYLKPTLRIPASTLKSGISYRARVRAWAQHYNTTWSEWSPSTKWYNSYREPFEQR

T3: human IL-4Rα (human, UniProt P24394 26-232)
T3 construct: also called Hu IL-4Rα; hIL-4Rα
T3 sequence: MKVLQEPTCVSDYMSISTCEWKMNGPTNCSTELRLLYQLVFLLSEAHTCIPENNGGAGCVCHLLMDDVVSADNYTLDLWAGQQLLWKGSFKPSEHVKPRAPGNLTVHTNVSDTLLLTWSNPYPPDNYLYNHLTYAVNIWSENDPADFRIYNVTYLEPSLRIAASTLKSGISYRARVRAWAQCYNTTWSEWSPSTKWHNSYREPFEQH


Assays:
[1] = molecular target: T1, hIL-4Rα on cells; experiment: FACS on HEK293 cells, competitor biotin-hIL-4;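 note: HEK293 cells stably co-expressing hIL-13Rα and hIL-4Rα, stained for 1 h at 4 °C, read-out as mean fluorescence intensity by flow cytometry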
[2] = molecular target: T1, hIL-4Rα on cells; experiment: cell-based or functional assay
[3] = molecular target: T1, hIL-4Rα on cells; experiment: cell-based or functional assay; remark: listed apart in the source
[4] = molecular target: T2, cynomolgus monkey IL-4Rα; experiment: SPR, Carterra LSA;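 note: antibodies captured on an anti-human Fc sensor chip, antigen injected at several concentrations, association and dissociation rates fitted with a 1:1 Langmuir model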
Protocol: (§1) Binding affinity (KD) of antibodies to human and cynomolgus monkey IL-4Rα was determined through surface plasmon resonance (SPR) using a Carterra LSA. Briefly, an HC30M sensor chip that was previously functionalized with a polyclonal mixture of goat anti-human Fc antibody and used to capture purified antibodies at a level between 100-1000 RLU. […] Regeneration of the chip between different concentrations of antigen was performed with 200 mM phosphoric acid and antibody was captured again as previously described. Association and dissociation rate constants were subsequently determined through fitting to a 1:1 Langmuir binding model using the Kinetics Software from Carterra from which a KD value was derived.

[5] = molecular target: T3, human IL-4Rα; experiment: SPR, Carterra LSA;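 note: antibodies captured on an anti-human Fc sensor chip, antigen injected at several concentrations, association and dissociation rates fitted with a 1:1 Langmuir model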
Protocol: as §1

[6] = molecular target: T1, hIL-4Rα on cells; experiment: cell-based or functional assay; remark: listed apart in the source
[7] = molecular target: T1, hIL-4Rα on cells; experiment: FACS on HEK293 cells, competitor biotin-hIL-13;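 note: stably transduced cells co-expressing both receptor chains, stained cold, with cell-bound signal read as mean fluorescence intensity by flow cytometry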
Protocol: Briefly, HEK293 previously transduced to stably express both hIL-13Rα and hIL-4Rα were cultured and harvested. Cells were seeded at 200,000 cells in 100 uL per well. Cells were washed and the supernatant discarded. […] The cells were stained in this mixture at 4° C. for 1 hour. […] Cells were incubated 4° C. for 1 hour, protected from light. Cells were then washed and the MFI of cells in each well were recorded by FACS using a BD FACSCanto II. Subsequent data were analyzed using GraphPad Prism.

Row | Binder | Relative Blockade of IL-4 Binding IC50 [1] | Relative Inhibition of IL-4 induced TF-1 Proliferation IC50 [2] | Relative Inhibition of IL-13 induced TF-1 Proliferation IC50 [2] | Relative Inhibition of IL-4 induced pSTAT6 IC50 [3] | Relative Inhibition of IL-13 induced pSTAT6 IC50 [3] | KD Relative to Dupilumab [4] | Kd [4] | KD Relative to Dupilumab [5] | Kd [5] | Relative Inhibition of IL-4 induced TARC IC50 [6] | Relative Inhibition of IL-13 induced TARC IC50 [6] | Relative Blockade of IL-13 Binding IC50 [7]
1 | Construct 40 (mAb476) (antibody, IgG4, V domains shown, VH/VL only) VH: EVQLVESGGGLEQPGGSLRLSCAGSGFTFRDFAMTWVRQAPGKGLEWVSSVSGDGGNTYYADSVKGRFTISRDNSKNTLYLQMNSLRAEDTAVYYCAKDRLSKTIRPRYYGLDVWGQGTTVTVSS VL: DIVMTQSPLSLPVTPGEPASISCRSSQSVLYSIGYNYVDWYLQKSGQSPQLLIYLGNKRASGVPDRFSGSGSGTDFTLKISRVEAEDVGFYYCMQAYQSPYVFGQGTKLEIK | 1.16 relative to dupilumab | 0.968 relative to dupilumab | 1.01 relative to dupilumab | 0.633 relative to dupilumab | 1.89 relative to dupilumab | 0.22 | 136 nM | 1.11 | 0.0126 nM | 1.6 relative to dupilumab | 4.7 relative to dupilumab | 1.19 relative to dupilumab
2 | Construct 30 (mAb439) (antibody, IgG4, V domains shown, VH/VL only) VH: EVQLVESGGGLEQPGGSLRLSCAGSGFTFRDYAMTWVRQAPGKGLEWVSSISGSGGNTYYADSVKGRFTISRDNSKNTLYLQMNSLRAEDTAVYYCAKDRLSITIRPRYYGLDVWGQGTTVTVSS VL: DIVMTQSPLSLPVTPGEPASISCRSSQSLLYSNRNNYLDWYLQKSGQSPQLLIYSASIRASGVPDRFSGSGSGTDFTLKISRVEAEDVGFYYCMQAFQAPYTFGQGTKLEIK | 0.863 relative to dupilumab | 0.387 relative to dupilumab | 0.917 relative to dupilumab | 1.09 relative to dupilumab | 0.781 relative to dupilumab | 0.2 | 128 nM | 0.98 | 0.011 nM | 0.68 relative to dupilumab | 0.592 relative to dupilumab | 0.958 relative to dupilumab
3 | Construct 44 (mAb485) (antibody, IgG4, V domains shown, VH/VL only) VH: EVQLVESGGGLEQPGGSLRLSCAGSGFTFRDFAMTWVRQAPGKGLEWVSSISGSGGNIYYADSVKGRFTISRDNSKNTLYLQMNSLRAEDTAVYYCAKDRLSKTIRPRYYGLDVWGQGTTVTVSS VL: DIVMTQSPLSLPVTPGEPASISCRSTQSLLYSIGKNYVDWYLQKSGQSPQLLIYEGNNRASGVPDRFSGSGSGTDFTLKISRVEAEDVGFYYCMQSLTSPYTFGQGTKLEIK | 1.21 relative to dupilumab | 1.15 relative to dupilumab | 1.29 relative to dupilumab | 1.18 relative to dupilumab | 3.76 relative to dupilumab | 2.03 | 1280 nM | 1.11 | 0.0125 nM | 2.53 relative to dupilumab | 5.72 relative to dupilumab | 1.23 relative to dupilumab
4 | Construct 42 (mAb481) (antibody, IgG4, V domains shown, VH/VL only) VH: EVQLVESGGGLEQPGGSLRLSCAGSGFTFRTYAMTWVRQAPGKGLEWVSSISGDGSNTYYADSVKGRFTISRDNSKNTLYLQMNSLRAEDTAVYYCAKDRVSITIRPRYYGLDVWGQGTTVTVSS VL: DIVMTQSPLSLPVTPGEPASISCTASQSLLYSIGYNYVDWYLQKSGQSPQLLIYLGNKRASGVPDRFSGSGSGTDFTLKISRVEAEDVGFYYCMQALTTPYTFGQGTKLEIK | 1.32 relative to dupilumab | 1.19 relative to dupilumab | 1.19 relative to dupilumab | 0.81 relative to dupilumab | 2.78 relative to dupilumab | 0.25 | 158 nM | 0.98 | 0.0111 nM | 2.02 relative to dupilumab | 1.62 relative to dupilumab | 1.34 relative to dupilumab
5 | Construct 43 (mAb482) (antibody, IgG4, V domains shown, VH/VL only) VH: EVQLVESGGGLEQPGGSLRLSCAGSGFTFRDFAMTWVRQAPGKGLEWVSSISGGGGNTYYADSVKGRFTISRDNSKNTLYLQMNSLRAEDTAVYYCAKDRLSIAVRPRYYGLDVWGQGTTVTVSS VL: DIVMTQSPLSLPVTPGEPASISCTSSQSLLYSIGYNYVDWYLQKSGQSPQLLIYLGSKRASGVPDRFSGSGSGTDFTLKISRVEAEDVGFYYCMQSLTSPYTFGQGTKLEIK | 1.02 relative to dupilumab | 1.13 relative to dupilumab | 0.941 relative to dupilumab | 0.633 relative to dupilumab | 2.29 relative to dupilumab | 0.24 | 150 nM | 0.84 | 0.00943 nM | 1.56 relative to dupilumab | 2.3 relative to dupilumab | 1.13 relative to dupilumab
6 | Construct 41 (mAb478) (antibody, IgG4, V domains shown, VH/VL only) VH: EVQLVESGGGLEQPGGSLRLSCAGSGFTFRDFAMTWVRQAPGKGLEWVSSISGGGGNTYYADSVKGRFTISRDNSKNTLYLQMNSLRAEDTAVYYCAKDRVSITIRPRYYGLDVWGQGTTVTVSS VL: DIVMTQSPLSLPVTPGEPASISCTASQSLLYSIGYNYVDWYLQKSGQSPQLLIYLGNKRASGVPDRFSGSGSGTDFTLKISRVEAEDVGFYYCMQAYNSPYTFGQGTKLEIK | 1.09 relative to dupilumab | 0.82 relative to dupilumab | 1.15 relative to dupilumab | 1.18 relative to dupilumab | 1.97 relative to dupilumab | 0.39 | 248 nM | 0.86 | 0.00973 nM | 1.53 relative to dupilumab | 1.35 relative to dupilumab | 1.15 relative to dupilumab
7 | Construct 45 (mAb494) (antibody, IgG4, V domains shown, VH/VL only) VH: EVQLVESGGGLEQPGGSLRLSCAGSGFTFRDFAMTWVRQAPGKGLEWVSSISGSGDGTYYADSVKGRFTISRDNSKNTLYLQMNSLRAEDTAVYYCAKDRVSITIRPRYYGLDVWGQGTTVTVSS VL: DIVMTQSPLSLPVTPGEPASISCTASQSLLYSIGYNYVDWYLQKSGQSPQLLIYLGNNRATGVPDRFSGSGSGTDFTLKISRVEAEDVGFYYCMQSLQTPYTFGQGTKLEIK | 1.08 relative to dupilumab | 1.68 relative to dupilumab | 1.79 relative to dupilumab | 1.25 relative to dupilumab | 4.61 relative to dupilumab | 0.31 | 192 nM | 0.96 | 0.0109 nM | 3.09 relative to dupilumab | 14.5 relative to dupilumab | 1.01 relative to dupilumab
8 | Construct 46 (mAb501) (antibody, IgG4, V domains shown, VH/VL only) VH: EVQLVESGGGLEQPGGSLRLSCAGSGFTFRDSAMTWVRQAPGKGLEWVSSISGSGDGTYYADSVKGRFTISRDNSKNTLYLQMNSLRAEDTAVYYCAKDRLSIYIRPRYYGLDVWGQGTTVTVSS VL: DIVMTQSPLSLPVTPGEPASISCTSSQSLLYSIGYNYVDWYLQKSGQSPQLLIYLGNKRASGVPDRFSGSGSGTDFTLKISRVEAEDVGFYYCMQALQTPYTFGQGTKLEIK | 1.22 relative to dupilumab | 1.29 relative to dupilumab | 1.28 relative to dupilumab | 1.04 relative to dupilumab | 3.6 relative to dupilumab | 0.36 | 228 nM | 0.97 | 0.011 nM | 2.49 relative to dupilumab | 4.66 relative to dupilumab | 1.02 relative to dupilumab
